# Assay results taken from patent publication US20240368668A1, “SUBSTRATES AND BIOMARKERS OF ADAMTS7” (The Broad Institute, Inc., priority 2021, published 2024).
# Square brackets hold non-standard residues; d marks the D form. Ends that are not written are not given here.
# Target: T1, mouse ADAMTS7 (Mus musculus, UniProt Q68SA9)
# T1 construct: Full-length mouse Adamts7 1-1857 (Uniprot Q68SA9, WT or E373Q catalytic mutant); expressed in transfected cells; host or cells: Human Coronary Artery Smooth Muscle Cells (HCA-SMC, Lonza), adenovirus 50 MOI
# T1 sequence (Q68SA9 221-1657): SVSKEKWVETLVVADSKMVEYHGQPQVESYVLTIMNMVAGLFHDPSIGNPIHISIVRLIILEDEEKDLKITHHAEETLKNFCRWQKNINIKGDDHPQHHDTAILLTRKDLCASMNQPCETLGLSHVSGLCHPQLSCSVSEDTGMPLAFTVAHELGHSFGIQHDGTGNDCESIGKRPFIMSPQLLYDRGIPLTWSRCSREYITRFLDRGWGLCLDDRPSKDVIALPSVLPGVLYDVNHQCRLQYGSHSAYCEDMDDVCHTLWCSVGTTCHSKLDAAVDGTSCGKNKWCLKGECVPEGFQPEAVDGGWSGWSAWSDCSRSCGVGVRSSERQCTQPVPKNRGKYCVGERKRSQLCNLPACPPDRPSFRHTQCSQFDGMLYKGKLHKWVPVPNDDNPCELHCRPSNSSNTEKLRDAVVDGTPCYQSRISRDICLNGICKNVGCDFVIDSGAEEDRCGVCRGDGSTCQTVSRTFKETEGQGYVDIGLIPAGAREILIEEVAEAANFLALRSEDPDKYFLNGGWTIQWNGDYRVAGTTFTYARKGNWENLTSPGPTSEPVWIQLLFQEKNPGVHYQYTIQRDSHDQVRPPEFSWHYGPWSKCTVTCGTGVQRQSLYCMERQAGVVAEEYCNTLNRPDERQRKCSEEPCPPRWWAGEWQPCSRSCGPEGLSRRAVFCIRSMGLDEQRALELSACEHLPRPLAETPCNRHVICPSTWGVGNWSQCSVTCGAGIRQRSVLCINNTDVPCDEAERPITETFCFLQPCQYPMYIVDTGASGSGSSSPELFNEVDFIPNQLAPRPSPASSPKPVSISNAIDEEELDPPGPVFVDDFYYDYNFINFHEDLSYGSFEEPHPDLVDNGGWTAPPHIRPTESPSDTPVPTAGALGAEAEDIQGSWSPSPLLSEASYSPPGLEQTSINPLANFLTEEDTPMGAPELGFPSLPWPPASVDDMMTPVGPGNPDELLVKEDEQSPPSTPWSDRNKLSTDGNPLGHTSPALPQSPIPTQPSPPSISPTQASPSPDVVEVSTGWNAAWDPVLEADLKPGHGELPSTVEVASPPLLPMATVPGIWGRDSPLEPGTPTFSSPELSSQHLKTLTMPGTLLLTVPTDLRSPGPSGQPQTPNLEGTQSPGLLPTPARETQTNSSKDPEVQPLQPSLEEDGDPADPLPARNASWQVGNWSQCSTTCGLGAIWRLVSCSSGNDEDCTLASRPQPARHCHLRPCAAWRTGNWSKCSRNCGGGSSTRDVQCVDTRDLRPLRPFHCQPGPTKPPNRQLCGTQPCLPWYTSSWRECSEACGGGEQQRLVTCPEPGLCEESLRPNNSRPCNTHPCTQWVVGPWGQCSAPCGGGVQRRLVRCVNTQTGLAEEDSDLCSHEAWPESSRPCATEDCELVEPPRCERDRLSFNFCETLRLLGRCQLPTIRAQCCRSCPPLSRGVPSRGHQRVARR
# Test: TMT10 TAILS N-terminomics, SMC1 experiment (Ad-mADAMTS7 WT vs EQ vs Luc, technical replicates, trypsin digest)
# Format: cell-based
# Conditions: TAILS neo-N-terminal peptide abundance; log fold change, Ad-mADAMTS7 WT over Luc
# Source text: ADAMTS7 Expression, Cell Culture and Preparation of the Secreted Proteins—Full-length mouse Adamts7 1-1857 (Uniprot Q68SA9, WT or E373Q catalytic mutant) with a carboxyl terminal 3xFLAG tag was used to generate custom adenoviruses as previously described. Adeno-CMV-Luciferase (Ad-Luc) from Vector Biolabs was used as a negative control. Human Coronary Artery Smooth Muscle Cells (HCA-SMC) were obtained from Lonza and expanded in Lonza SmGM-2 media in 15 cm tissue culture plates. Twenty-four hours before media collection, near confluent plates were transduced with 50 MOI adenovirus and switched to Lonza Basal SM media with volumes of 20 ml per 15 cm plate. Expression of the Flag tagged ADAMTS7 was confirmed from the media using western blot and detected using the anti-Flag M2-HRP antibody (Sigma, A8592). Collected media was processed by adding protease inhibitors (1 mM EDTA and 1 mM PMSF) and clarified by 500 g×5 min spin at 4 C to pellet cell debris. Cell media supernatants were then passed through a 0.22 um filter and kept chilled. Processed media was then concentrated 50-100× using 3 kDa Centricon Plus-70 filter unit, spun at 3,500 g×60 min at 4 C. Approximately 10% of the processed, concentrated media was set aside for total secretome proteolytic analysis. The remaining 90% of the processed, concentrated media was buffer exchanged into 50 mM HEPES pH 8.0, 150 mM NaCl (2×50 ml) using the 3 kDa Centricon Plus-70 filter unit and concentrated to >2 mg/ml to serve as input for the TAILS experiment. Secretome and TAILS input samples were stored at −80° C.
# For the first experiment, referred to as SMC1, 120 ml of media from 6×15 cm dishes was pooled from each condition (Luc, WT, EQ) and processed to produce three separate inputs for the TAILS experiment. Luc, WT and EQ inputs from the SMC1 experiment were each divided into triplicate 400 ug samples to generate technical replicate TAILS data. For the second experiment, referred to as SMC2, media was processed separately in triplicate for each condition (Luc1, Luc2, Luc3, WT1, WT2, WT3, EQ1, EQ2, EQ3) using 60 ml of media from 3×15 cm dishes for each process replicate. Inputs from the SMC2 experiment used process replicates of 300 ug each to generate TAILS data. The third experiment used input from cultured Human umbilical vein endothelial cells (HUVEC) from Lifeline Cell Technology grown in VascuLife Media and transduced in Lifeline Basal EC (+bFGF2 10 ng/ml). The HUVEC experiment used the same strategy as the SMC2 experiment, with 40 ml of media from 2×15 cm dishes for each process replicate and used 200 ug each to generate TAILS data. Inputs for process replicate experiments were restricted to the lowest concentration from the 9 parallel samples for SMC2 or HUVEC.
# TMT10 isotopic labeling and negative selection of non-labeled peptides-Sample preparation was performed based on the TAILS protocol from the Overall lab with some modifications. From a single experiment, nine parallel protein samples in 50 mM HEPES pH 8.0, 150 mM NaCl were separately denatured with guanidinium chloride (Sigma, G4505) to reach a final concentration of 2.5M guanidinium chloride and 250 mM HEPES and incubated at 65° C. for 15 min. Reduction was achieved through addition of tris(2-carboxylethyl) phosphine (TCEP) at a final concentration of […] and incubated at 65° C. for 45 min. Alkylation reaction was performed with addition of iodoacetamide (IAA, Sigma, A3221) to a final concentration of 10 mM IAA for 15 min at room temperature in the dark. Following denaturation, reduction and alkylation steps, ten percent of each of the nine parallel protein samples was removed and combined to serve as a pooled reference. Isobaric tags were added to free amine groups using the TMT10plex Isobaric Mass Tagging Kit (ThermoFisher, 90113) with TMT channels randomly assigned to the nine samples and TMT 131 assigned to the pooled reference. […]
row,logFC.mWT.over.Lux,Substance
1,2.87,HTRA1_33 (LAAGCPDR; listed as Homo sapiens)
2,3.19,IFI30_43 (YKTGNLYLR; listed as Homo sapiens)
3,2.46,IGFBP3_31 (SAGLGPVVR; listed as Homo sapiens)
4,4.06,IGFBP3_32 (AGLGPVVR; listed as Homo sapiens)
5,2.33,IGFBP3_200 (FSSESKR; listed as Homo sapiens)
6,3.99,IGFBP7_101 (AAGGPGVSGVCVCKSR; listed as Homo sapiens)
7,0.87,LASP1_123 (HEEFEKSR; listed as Homo sapiens)
8,4.83,LGALS1_53 (HGDANTIVCNSKDGGAWGTEQR; listed as Homo sapiens)
9,4.70,LGALS3BP_447 (FQAPSDYR; listed as Homo sapiens)
10,0.99,LOXL1_219 (VASAGVIYPYQPR; listed as Homo sapiens)
11,3.37,LOXL2_37 (FQQPAPEYHQPQAPANVAKIQLR; listed as Homo sapiens)
12,1.37,LOXL2_38 ([code q]QPAPEYHQPQAPANVAKIQLR; not fully specified; listed as Homo sapiens)
13,0.78,LOXL2_318 (AYKPEQPLVR; listed as Homo sapiens)
14,0.88,LOX_58 (LSLGSQYQPQR; listed as Homo sapiens)
15,2.02,LOX_80 (ANASAQQPR; listed as Homo sapiens)
16,1.38,LOX_81 (NASAQQPR; listed as Homo sapiens)

row,logFC.mWT.over.Lux,Substance
1,1.60,LOX_123 (HWFQAGYSTSR; listed as Homo sapiens)
2,3.70,LOX_124 (WFQAGYSTSR; listed as Homo sapiens)
3,1.61,LOX_126 (QAGYSTSR; listed as Homo sapiens)
4,4.03,LTBP1_393 (LTATNFR; listed as Homo sapiens)
5,2.61,LTBP1_494 (SVQIHQVSR; listed as Homo sapiens)
6,2.83,LTBP1_540 (HQQVIPHVYPVAAKTQLGR; listed as Homo sapiens)
7,3.62,LTBP1_546 (HVYPVAAKTQLGR; listed as Homo sapiens)
8,1.80,LTBP2_485 (SVQIHQVAQVR; listed as Homo sapiens)
9,1.34,LTBP2_533 (SGEPPRPLPPAAPR; listed as Homo sapiens)
10,0.90,LTBP2_677 (SLGPGTCTLPLAQR; listed as Homo sapiens)
11,1.54,LTBP2_760 (SSGALPGPAER; listed as Homo sapiens)
12,0.74,LTBP2_1023 (GKCTNLEGSFR; listed as Homo sapiens)
13,1.24,LTBP2_1371 (SGQKGHAPCSSVLGR; listed as Homo sapiens)
14,0.94,LTBP2_1560 (TTYTECCCQDGEAWSQQCALCPPR; listed as Homo sapiens)
15,1.40,LTBP2_1584 (SSEVYAQLCNVAR; listed as Homo sapiens)
